Test results taken from US10344077.

How the values were obtained:
AtheNA, Ab 12.5 ug/ml = substrate: T1, SSB (UniProt P05455); experiment: AtheNA, Ab 12.5 ug/ml
T1 sequence (looked up): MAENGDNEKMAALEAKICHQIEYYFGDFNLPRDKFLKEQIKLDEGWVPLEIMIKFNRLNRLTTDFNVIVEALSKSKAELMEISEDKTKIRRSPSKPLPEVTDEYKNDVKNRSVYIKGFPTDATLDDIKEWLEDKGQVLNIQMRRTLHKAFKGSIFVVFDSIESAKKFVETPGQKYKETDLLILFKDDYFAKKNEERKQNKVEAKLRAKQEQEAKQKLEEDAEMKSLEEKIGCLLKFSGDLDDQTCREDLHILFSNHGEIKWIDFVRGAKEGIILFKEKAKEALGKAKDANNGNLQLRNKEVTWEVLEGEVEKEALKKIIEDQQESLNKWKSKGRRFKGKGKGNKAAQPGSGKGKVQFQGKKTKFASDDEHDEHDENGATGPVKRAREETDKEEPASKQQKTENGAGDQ

SSA [1] = experiment: AtheNA, Ab 25 ug/ml
Jo-1 [2] = target: T2, Jo-1 (UniProt P12081); experiment: AtheNA, Ab 25 ug/ml
T2 sequence (looked up): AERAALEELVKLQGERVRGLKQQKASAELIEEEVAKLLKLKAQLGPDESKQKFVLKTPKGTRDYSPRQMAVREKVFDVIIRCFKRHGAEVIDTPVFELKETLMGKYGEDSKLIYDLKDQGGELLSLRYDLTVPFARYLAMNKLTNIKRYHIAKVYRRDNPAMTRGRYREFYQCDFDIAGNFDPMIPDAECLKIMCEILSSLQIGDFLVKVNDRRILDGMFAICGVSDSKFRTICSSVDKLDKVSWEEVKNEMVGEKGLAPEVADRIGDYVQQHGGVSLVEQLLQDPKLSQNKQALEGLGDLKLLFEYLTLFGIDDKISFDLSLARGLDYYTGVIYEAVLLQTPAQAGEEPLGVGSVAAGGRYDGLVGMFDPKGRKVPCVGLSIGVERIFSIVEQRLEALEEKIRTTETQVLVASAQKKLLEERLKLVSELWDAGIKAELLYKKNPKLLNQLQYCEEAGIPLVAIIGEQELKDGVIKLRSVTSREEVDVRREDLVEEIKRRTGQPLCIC

Scl-70 [3] = target: Scl-70 (UniProt P11387); experiment: AtheNA, Ab 25 ug/ml
Centromere B [4] = target: T3, Centromere B (UniProt P07199); experiment: AtheNA, Ab 25 ug/ml
T3 sequence (looked up): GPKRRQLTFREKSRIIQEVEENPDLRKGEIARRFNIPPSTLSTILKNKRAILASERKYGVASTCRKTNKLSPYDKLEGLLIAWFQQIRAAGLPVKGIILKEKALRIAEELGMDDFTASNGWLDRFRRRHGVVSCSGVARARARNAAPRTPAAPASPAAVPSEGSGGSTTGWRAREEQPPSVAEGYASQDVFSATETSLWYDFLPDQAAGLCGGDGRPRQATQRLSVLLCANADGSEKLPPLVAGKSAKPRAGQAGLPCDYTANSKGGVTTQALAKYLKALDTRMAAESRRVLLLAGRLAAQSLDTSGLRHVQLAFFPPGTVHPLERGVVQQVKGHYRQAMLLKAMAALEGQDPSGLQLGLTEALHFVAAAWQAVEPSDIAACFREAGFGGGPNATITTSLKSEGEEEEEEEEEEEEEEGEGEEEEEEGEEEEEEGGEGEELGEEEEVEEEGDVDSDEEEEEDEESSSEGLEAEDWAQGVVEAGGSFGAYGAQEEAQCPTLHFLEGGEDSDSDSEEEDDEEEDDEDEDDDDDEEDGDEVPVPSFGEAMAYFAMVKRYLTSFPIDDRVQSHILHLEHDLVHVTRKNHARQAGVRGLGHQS

RNP (ribonucleoprotein) [5] = experiment: AtheNA, Ab 25 ug/ml
Histones [6] = experiment: AtheNA, Ab 25 ug/ml
Sm (Smith antigen) [7] = experiment: AtheNA, Ab 25 ug/ml
SSA [8] = experiment: AtheNA, Ab 6.25 ug/ml
Jo-1 [9] = target: T2, Jo-1; experiment: AtheNA, Ab 6.25 ug/ml
Scl-70 [10] = target: Scl-70 (UniProt P11387); experiment: AtheNA, Ab 6.25 ug/ml
Centromere B [11] = target: T3, Centromere B; experiment: AtheNA, Ab 6.25 ug/ml
RNP (ribonucleoprotein) [12] = experiment: AtheNA, Ab 6.25 ug/ml
Histones [13] = experiment: AtheNA, Ab 6.25 ug/ml
Sm (Smith antigen) [14] = experiment: AtheNA, Ab 6.25 ug/ml
AtheNA, Ab 25 ug/ml = substrate: T1, ; experiment: AtheNA, Ab 25 ug/ml
SSA [15] = experiment: AtheNA, Ab 12.5 ug/ml
Jo-1 [16] = target: T2, Jo-1; experiment: AtheNA, Ab 12.5 ug/ml
Scl-70 [17] = target: Scl-70 (UniProt P11387); experiment: AtheNA, Ab 12.5 ug/ml
Centromere B [18] = target: T3, Centromere B; experiment: AtheNA, Ab 12.5 ug/ml
RNP (ribonucleoprotein) [19] = experiment: AtheNA, Ab 12.5 ug/ml
Histones [20] = experiment: AtheNA, Ab 12.5 ug/ml
Sm (Smith antigen) [21] = experiment: AtheNA, Ab 12.5 ug/ml
AtheNA, Ab 6.25 ug/ml = substrate: T1, ; experiment: AtheNA, Ab 6.25 ug/ml
SSA [22] = experiment: AtheNA, Ab 50 ug/ml
Jo-1 [23] = target: T2, Jo-1; experiment: AtheNA, Ab 50 ug/ml
Centromere B [24] = target: T3, Centromere B; experiment: AtheNA, Ab 50 ug/ml
Histones [25] = experiment: AtheNA, Ab 50 ug/ml
Sm (Smith antigen) [26] = experiment: AtheNA, Ab 50 ug/ml
AtheNA, Ab 50 ug/ml = substrate: T1, ; experiment: AtheNA, Ab 50 ug/ml

Chain of Scl-70 (P11387 2-765 limits assumed): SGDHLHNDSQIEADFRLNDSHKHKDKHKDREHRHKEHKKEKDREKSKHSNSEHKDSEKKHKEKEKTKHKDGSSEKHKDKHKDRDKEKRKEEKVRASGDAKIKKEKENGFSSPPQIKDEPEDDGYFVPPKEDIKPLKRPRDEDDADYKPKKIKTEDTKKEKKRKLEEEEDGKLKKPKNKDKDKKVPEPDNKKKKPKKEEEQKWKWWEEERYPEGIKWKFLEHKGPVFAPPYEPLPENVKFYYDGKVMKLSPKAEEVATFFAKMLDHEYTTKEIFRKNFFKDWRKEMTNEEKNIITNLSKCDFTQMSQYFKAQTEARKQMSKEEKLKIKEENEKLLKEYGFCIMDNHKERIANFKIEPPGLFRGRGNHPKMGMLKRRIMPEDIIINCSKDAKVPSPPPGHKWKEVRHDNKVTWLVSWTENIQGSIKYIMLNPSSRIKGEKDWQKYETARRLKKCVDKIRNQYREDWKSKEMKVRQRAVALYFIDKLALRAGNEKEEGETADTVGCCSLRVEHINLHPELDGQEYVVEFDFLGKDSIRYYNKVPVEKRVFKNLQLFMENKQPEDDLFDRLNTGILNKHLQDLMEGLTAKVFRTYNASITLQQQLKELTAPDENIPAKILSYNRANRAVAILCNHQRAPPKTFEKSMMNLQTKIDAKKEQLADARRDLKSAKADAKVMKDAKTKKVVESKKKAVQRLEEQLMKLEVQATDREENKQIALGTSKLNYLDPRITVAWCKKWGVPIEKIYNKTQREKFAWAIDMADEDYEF

- Athena reading (relative luminescence units) (AtheNA, Ab 12.5 ug/ml): 63
- Athena reading (relative luminescence units) (SSA [1]): 224
- Athena reading (relative luminescence units) (Jo-1 [2]): 72
- Athena reading (relative luminescence units) (Scl-70 [3]): 62
- Athena reading (relative luminescence units) (Centromere B [4]): 129
- Athena reading (relative luminescence units) (RNP (ribonucleoprotein) [5]): 69
- Athena reading (relative luminescence units) (Histones [6]): 193
- Athena reading (relative luminescence units) (Sm (Smith antigen) [7]): 165
- Athena reading (relative luminescence units) (SSA [8]): 44
- Athena reading (relative luminescence units) (Jo-1 [9]): 7
- Athena reading (relative luminescence units) (Scl-70 [10]): 31
- Athena reading (relative luminescence units) (Centromere B [11]): 208
- Athena reading (relative luminescence units) (RNP (ribonucleoprotein) [12]): 40
- Athena reading (relative luminescence units) (Histones [13]): 154
- Athena reading (relative luminescence units) (Sm (Smith antigen) [14]): 184
- Athena reading (relative luminescence units) (AtheNA, Ab 25 ug/ml): 175
- Athena reading (relative luminescence units) (SSA [15]): 185
- Athena reading (relative luminescence units) (Jo-1 [16]): 19
- Athena reading (relative luminescence units) (Scl-70 [17]): 50
- Athena reading (relative luminescence units) (Centromere B [18]): 233
- Athena reading (relative luminescence units) (RNP (ribonucleoprotein) [19]): 78
- Athena reading (relative luminescence units) (Histones [20]): 234
- Athena reading (relative luminescence units) (Sm (Smith antigen) [21]): 258
- Athena reading (relative luminescence units) (AtheNA, Ab 6.25 ug/ml): 15
- Athena reading (relative luminescence units) (SSA [22]): 177
- Athena reading (relative luminescence units) (Jo-1 [23]): 145
- Athena reading (relative luminescence units) (Centromere B [24]): 84
- Athena reading (relative luminescence units) (Histones [25]): 138
- Athena reading (relative luminescence units) (Sm (Smith antigen) [26]): 128
- Athena reading (relative luminescence units) (AtheNA, Ab 50 ug/ml): 207
B1: CH236_4A/293i (antibody, from a related filing, V domains shown)
VH: QVQLVQSGAAVKRPGASVTISCRASGYTFTTYYIHWVRQAPGQRLELMGMIDPSRGRTDYAQKFQGRVTMSRDTSTSTLYMELRSLRPDDTALYYCVRNVGTEGSLLHYDYWGQGTLVTVSS
VL: EIVLTQSPATLSVSPGERVTLSCRASQSVRNNLAWYRQKRGQAPRLLIYGASTRATGIPARFSGSGSGTEFTLTISSMQSEDFAVYYCQQYNNWWTFGQGTKVEIK
